Results on eleven molecules are retold here after paper PMC11743776, “Isoxazole-based molecules restore NK cell immune surveillance in hepatocarcinogenesis by targeting TM4SF5 and SLAMF7 linkage” (Signal Transduction and Targeted Therapy, 2025).

One series concerns the target T1, TM4SF5 (Homo sapiens, UniProt O14894).
T1 construct: Strep-TM4SF5 WT (pulled down from HEK293FT) or HA-TM4SF5 (immunoprecipitated from Huh7KO)
T1 sequence (O14894 1-197): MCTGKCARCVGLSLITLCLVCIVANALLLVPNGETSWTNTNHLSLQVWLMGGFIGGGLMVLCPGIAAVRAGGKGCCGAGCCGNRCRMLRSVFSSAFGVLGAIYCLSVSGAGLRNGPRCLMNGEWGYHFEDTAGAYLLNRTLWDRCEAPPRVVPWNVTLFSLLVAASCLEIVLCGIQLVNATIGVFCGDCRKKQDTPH
Briefly: […]-radioligand binding to pulled-down/immunoprecipitated TM4SF5, blocked by cold ST-5-002; EC50 by titration (about […] or […] for the differently tagged proteins).

A short description of series [1]: immunoblot of SLAMF7 in co-transfected SNU761 cells. To be noted: glycan lost; control: Strep-TM4SF5 WT.
Series [2] in a line: confocal immunofluorescence colocalisation. The note with it: glycan lost; control: FLAG-SLAMF7 WT.
A short description of series [3]: immunoblot of SLAMF7 level with TM4SF5 expression. The note with it: glycan lost; control: WT SLAMF7, TM4SF5 co-expressed. In general terms: Immunoblotting shows a protein as a band on a membrane.

As a reminder, the EC50 is the concentration giving half of the maximal effect. `Cc1ccc(C(=O)Nc2ccc(-c3cc(-c4ccc(O)cc4)no3)cc2)cc1` [ST-5-002, N-(4-(3-(4-hydroxyphenyl)isoxazol-5-yl)phenyl)-4-methylbenzamide] displayed an EC50 on TM4SF5 of roughly 850 nM.

B1: TM4SF5: Gly− (protein)
parent chain: T1 sequence (O14894 1-197)
For the molecule B1, the “other: downregulation of SLAMF7 level” value in series [1] is given as “abolishes”.

B2: SLAMF7: NQ#6 (protein)
parent chain: MAGSPTCLTLIYILWQLTGSAASGPVKELVGSVGGAVTFPLKSKVKQVDSIVWTFNTTPLVTIQPEGGTIIVTQNRNRERVDFPDGGYSLKLSKLKKNDSGIYYVGIYSSSLQQPSTQEYVLHVYEHLSKPKVTMGLQSNKNGTCVTNLTCCMEHGEEDVIYTWKALGQAANESHNGSILPISWRWGESDMTFICVARNPVSRNFSSPILARKLCEGAADDPDSSMVLLCLLLVPLLLSLFVLGLFLWFLKRERQEEYIEEKKRVDICRETPNICPHSGENTEYDTIPHTNRTILKEDPANTVYSTVEIPKKMENPHSLLTMPDTPRLFAYENVI
In the case of B2, in series [2], the localisation_or_trafficking entry was “abolishes”.

B3: SLAMF7: NQ#2 (protein)
parent chain: B2 parent chain
As to B3, the expression_or_secretion entry in series [3] is on record as “no change”.

B4: SLAMF7: NQ#1 (protein)
parent chain: B2 parent chain
As for B4, the expression_or_secretion entry in series [3] is listed as “no change”.

B5: SLAMF7: NQ#3 (protein)
parent chain: B2 parent chain
B5: the expression_or_secretion result in series [3] was “no change”.

B6: SLAMF7: NQ#23456 (protein)
parent chain: B2 parent chain
On to B6, for which the expression_or_secretion result in series [3] was “increases”.

B7: SLAMF7: NQ#2456 (protein)
parent chain: B2 parent chain
In the case of B7, the expression_or_secretion result in series [3] was “increases”.

B8: SLAMF7: NQ#456 (protein)
parent chain: B2 parent chain
Turning to B8, the localisation_or_trafficking result in series [2] is “abolishes”. Also, the expression_or_secretion result in series [3] is on record as “increases”.

B9: SLAMF7: NQ#1456 (protein)
parent chain: B2 parent chain
For the molecule B9, the expression_or_secretion entry in series [3] is on record as “increases”.

B10: SLAMF7: NQ#123 (protein)
parent chain: B2 parent chain
B10: the localisation_or_trafficking result in series [2] is reported as “no change”. Further, the expression_or_secretion entry in series [3] is recorded as “no change”.
